For seven sequences, thermal stability score results are on record in the supplement of paper PMC5998384.

This data set concerns HeLa Kyoto. The data set is described as follows: thermal stability score vs G1/S (z-score of summed log2 fold changes over temperatures); higher = more thermally stable than in G1/S.
Setting [1] is: cell cycle stage: early G1 (4.5 h after nocodazole release).
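Also: synchronized HeLa Kyoto cells, proteins quantified by TMT10plex mass spectrometry, three biological replicates, mitosis taken 0.5 h after nocodazole release, G1/S directly after double thymidine block.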

As to “MGNPENIEDAYVAVIRPKNTASLNSREYRAKSYEILLHEVPIEGQKKKRKKVLLETKLQGNSEITQGILDYVVETTKPISPANQGIRGKRVVLMKKFPLDGEKMGREASLFIVPSVVKDNTKYTYTPGCPIFYCLQDIMRVCSESSTHFATLTARMLIALDKWLDERHAQSHFIPALFRPSPLERIKTNVINPAYATESGQTENSLHMGYSALEIKSKMLALEKADTCIYNPLFGSDLQYTNRVDKVVINPYFGLGAPDYSKIQIPKQEKWQRSMSSVTEDKERQWVDDFPLHRSACEGDSELLSRLLSERFSVNQLDSDHWAPIHYACWYGKVEATRILLEKGKCNPNLLNGQLSSPLHFAAGGGHAEIVQILLNHPETDRHITDQQGRSPLNICEENKQNNWEEAAKLLKEAINKPYEKVRIYRMDGSYRSVELKHGNNTTVQQIMEGMRLSQETQQYFTIWICSENLSLQLKPYHKPLQHVRDWPEILAELTNLDPQRETPQLFLRRDVRLPLEVEKQIEDPLAILILFDEARYNLLKGFYTAPDAKLITLASLLLQIVYGNYESKKHKQGFLNEENLKSIVPVTKLKSKAPHWTNRILHEYKNLSTSEGVSKEMHHLQRMFLQNCWEIPTYGAAFFTGQIFTKASPSNHKVIPVYVGVNIKGLHLLNMETKALLISLKYGCFMWQLGDTDTCFQIHSMENKMSFIVHTKQAGLVVKLLMKLNGQLMPTERNS [KRIT1]”, the thermal stability score is -0.252 under setting [1] and 0.0145 (cell cycle stage: mitosis).

As to “MGQCGITSSKTVLVFLNLIFWGAAGILCYVGAYVFITYDDYDHFFEDVYTLIPAVVIIAVGALLFIIGLIGCCATIRESRCGLATFVIILLLVFVTEVVVVVLGYVYRAKVENEVDRSIQKVYKTYNGTNPDAASRAIDYVQRQLHCCGIHNYSDWENTDWFKETKNQSVPLSCCRETASNCNGSLAHPSDLYAEGCEALVVKKLQEIMMHVIWAALAFAAIQLLGMLCACIVLCRRSRDPAYELLITGGTYA [TSPAN3]”, the thermal stability score was -0.556 under setting [1] and -0.785 (cell cycle stage: mitosis).

Consider “MKAIIHLTLLALLSVNTATNQGNSADAVTTTETATSGPTVAAADTTETNFPETASTTANTPSFPTATSPAPPIISTHSSSTIPTPAPPIISTHSSSTIPIPTAADSESTTNVNSLATSDIITASSPNDGLITMVPSETQSNNEMSPTTEDNQSSGPPTGTALLETSTLNSTGPSNPCQDDPCADNSLCVKLHNTSFCLCLEGYYYNSSTCKKGKVFPGKISVTVSETFDPEEKHSMAYQDLHSEITSLFKDVFGTSVYGQTVILTVSTSLSPRSEMRADDKFVNVTIVTILAETTSDNEKTVTEKINKAIRSSSSNFLNYDLTLRCDYYGCNQTADDCLNGLACDCKSDLQRPNPQSPFCVASSLKCPDACNAQHKQCLIKKSGGAPECACVPGYQEDANGNCQKCAFGYSGLDCKDKFQLILTIVGTIAGIVILSMIIALIVTARSNNKTKHIEEENLIDEDFQNLKLRSTGFTNLGAEGSVFPKVRITASRDSQMQNPYSRHSSMPRPDY [MUC13]”, for which the thermal stability score was -3.46 under setting [1] and -1.12 (cell cycle stage: mitosis).

Consider “MKLPIFIADAFTARAFRGNPAAVCLLENELDEDMHQKIAREMNLSETAFIRKLHPTDNFAQSSCFGLRWFTPASEVPLCGHATLASAAVLFHKIKNMNSTLTFVTLSGELRARRAEDGIVLDLPLYPAHPQDFHEVEDLIKTAIGNTLVQDICYSPDTQKLLVRLSDVYNRSFLENLKVNTENLLQVENTGKVKGLILTLKGEPGGQTQAFDFYSRYFAPWVGVAEDPVTGSAHAVLSSYWSQHLGKKEMHAFQCSHRGGELGISLRPDGRVDIRGGAAVVLEGTLTA [PBLD]”, for which the thermal stability score by setting is: under setting [1], -0.159; (cell cycle stage: mitosis) 0.989.

Regarding “MKLVFLVLLFLGALGLCLAGRRRSVQWCAVSQPEATKCFQWQRNMRKVRGPPVSCIKRDSPIQCIQAIAENRADAVTLDGGFIYEAGLAPYKLRPVAAEVYGTERQPRTHYYAVAVVKKGGSFQLNELQGLKSCHTGLRRTAGWNVPIGTLRPFLNWTGPPEPIEAAVARFFSASCVPGADKGQFPNLCRLCAGTGENKCAFSSQEPYFSYSGAFKCLRDGAGDVAFIRESTVFEDLSDEAERDEYELLCPDNTRKPVDKFKDCHLARVPSHAVVARSVNGKEDAIWNLLRQAQEKFGKDKSPKFQLFGSPSGQKDLLFKDSAIGFSRVPPRIDSGLYLGSGYFTAIQNLRKSEEEVAARRARVVWCAVGEQELRKCNQWSGLSEGSVTCSSASTTEDCIALVLKGEADAMSLDGGYVYTAGKCGLVPVLAENYKSQQSSDPDPNCVDRPVEGYLAVAVVRRSDTSLTWNSVKGKKSCHTAVDRTAGWNIPMGLLFNQTGSCKFDEYFSQSCAPGSDPRSNLCALCIGDEQGENKCVPNSNERYYGYTGAFRCLAENAGDVAFVKDVTVLQNTDGNNNEAWAKDLKLADFALLCLDGKRKPVTEARSCHLAMAPNHAVVSRMDKVERLKQVLLHQQAKFGRNGSDCPDKFCLFQSETKNLLFNDNTECLARLHGKTTYEKYLGPQYVAGITNLKKCSTSPLLEACEFLRK [LTF]”, the thermal stability score is -3.21 under setting [1] and -1.19 (cell cycle stage: mitosis).

For “MNPGFDLSRRNPQEDFELIQRIGSGTYGDVYKARNVNTGELAAIKVIKLEPGEDFAVVQQEIIMMKDCKHPNIVAYFGSYLRRDKLWICMEFCGGGSLQDIYHVTGPLSELQIAYVSRETLQGLYYLHSKGKMHRDIKGANILLTDNGHVKLADFGVSAQITATIAKRKSFIGTPYWMAPEVAAVERKGGYNQLCDLWAVGITAIELAELQPPMFDLHPMRALFLMTKSNFQPPKLKDKMKWSNSFHHFVKMALTKNPKKRPTAEKLLQHPFVTQHLTRSLAIELLDKVNNPDHSTYHDFDDDDPEPLVAVPHRIHSTSRNVREEKTRSEITFGQVKFDPPLRKETEPHHELPDSDGFLDSSEEIYYTARSNLDLQLEYGQGHQGGYFLGANKSLLKSVEEELHQRGHVAHLEDDEGDDDESKHSTLKAKIPPPLPPKPKSIFIPQEMHSTEDENQGTIKRCPMSGSPAKPSQVPPRPPPPRLPPHKPVALGNGMSSFQLNGERDGSLCQQQNEHRGTNLSRKEKKDVPKPISNGLPPTPKVHMGACFSKVFNGCPLKIHCASSWINPDTRDQYLIFGAEEGIYTLNLNELHETSMEQLFPRRCTWLYVMNNCLLSISGKASQLYSHNLPGLFDYARQMQKLPVAIPAHKLPDRILPRKFSVSAKIPETKWCQKCCVVRNPYTGHKYLCGALQTSIVLLEWVEPMQKFMLIKHIDFPIPCPLRMFEMLVVPEQEYPLVCVGVSRGRDFNQVVRFETVNPNSTSSWFTESDTPQTNVTHVTQLERDTILVCLDCCIKIVNLQGRLKSSRKLSSELTFDFQIESIVCLQDSVLAFWKHGMQGRSFRSNEVTQEISDSTRIFRLLGSDRVVVLESRPTDNPTANSNLYILAGHENSY [MAP4K3]”, the thermal stability score is 0.473 under setting [1] and 0.693 (cell cycle stage: mitosis).

As for “MNRESFAAGERLVSPAYVRQGCEARRSHEHLIRLLLEKGKCPENGWDESTLELFLHELAIMDSNNFLGNCGVGEREGRVASALVARRHYRFIHGIGRSGDISAVQPKAAGSSLLNKITNSLVLDIIKLAGVHTVANCFVVPMATGMSLTLCFLTLRHKRPKAKYIIWPRIDQKSCFKSMITAGFEPVVIENVLEGDELRTDLKAVEAKVQELGPDCILCIHSTTSCFAPRVPDRLEELAVICANYDIPHIVNNAYGVQSSKCMHLIQQGARVGRIDAFVQSLDKNFMVPVGGAIIAGFNDSFIQEISKMYPGRASASPSLDVLITLLSLGSNGYKKLLKERKEMFSYLSNQIKKLSEAYNERLLHTPHNPISLAMTLKTLDEHRDKAVTQLGSMLFTRQVSGARVVPLGSMQTVSGYTFRGFMSHTNNYPCAYLNAASAIGMKMQDVDLFIKRLDRCLKAVRKERSKESDDNYDKTEDVDIEEMALKLDNVLLDTYQDASS [SEPSECS]”, the thermal stability score is, setting by setting: under setting [1], -1.52; (cell cycle stage: mitosis) -1.62.
